Laboratory results reported in publication PMC7803741.
Read-outs that look alike come from different tables or passages of the source.

Tests used:
[1] = target: clathrin adaptor protein AP2 (AP2 μ1 subunit as printed) (UniProt P84092); assay: ITC; conditions: reference: unphosphorylated synthetic γ2-GIM peptide; sites Y405
GABARAP = GABARAP (UniProt Q9DCD6); assay: ITC; conditions: reference: unphosphorylated synthetic γ2-GIM peptide; sites Y405
[2] = target: GABAA receptor-associated protein (GABARAP) (mouse) (UniProt Q9DCD6); assay: ITC; VP-ITC at 25 °C; 50 mM Tris pH 7.8, 100 mM NaCl, 1 mM EDTA, 1 mM DTT; γ2 subunit protein or peptide (100-200 μM) injected into GABARAP, GABARAPL1 or AP2 (10-20 μM) in the cell; one-site binding model
[3] = target: GABAAR-associated protein (GABARAP) (mouse) (UniProt Q9DCD6); assay: ITC; VP-ITC, 25 °C; 50 mM Tris pH 7.8, 100 mM NaCl, 1 mM EDTA, 1 mM DTT; γ2 subunit protein or peptide (100–200 μM) injected into GABARAP, GABARAPL1 or AP2 (10–20 μM) in the cell; one-site binding model
[4] = target: clathrin adaptor protein AP2 (AP2 μ1 subunit as printed) (rat) (UniProt P84092); assay: as above
[5] = target: GABAAR-associated protein (GABARAP) (mouse) (UniProt Q9DCD6); assay: as above; remark: listed apart in the source

clathrin adaptor protein AP2 (AP2 μ1 subunit as printed) (rat), sequence (P84092 whole entry): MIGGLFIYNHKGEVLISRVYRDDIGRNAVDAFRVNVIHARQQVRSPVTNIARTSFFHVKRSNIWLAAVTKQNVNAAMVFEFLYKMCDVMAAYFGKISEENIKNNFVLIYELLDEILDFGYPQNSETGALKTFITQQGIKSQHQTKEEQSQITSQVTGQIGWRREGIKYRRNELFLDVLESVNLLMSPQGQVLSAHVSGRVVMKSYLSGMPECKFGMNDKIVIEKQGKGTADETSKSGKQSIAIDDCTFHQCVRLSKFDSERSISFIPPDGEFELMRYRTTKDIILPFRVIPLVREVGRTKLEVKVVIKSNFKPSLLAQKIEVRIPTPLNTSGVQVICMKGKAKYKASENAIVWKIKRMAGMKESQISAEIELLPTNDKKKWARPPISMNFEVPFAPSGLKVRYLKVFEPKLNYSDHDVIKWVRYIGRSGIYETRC
GABAAR-associated protein (GABARAP) (mouse), sequence (Q9DCD6 whole entry): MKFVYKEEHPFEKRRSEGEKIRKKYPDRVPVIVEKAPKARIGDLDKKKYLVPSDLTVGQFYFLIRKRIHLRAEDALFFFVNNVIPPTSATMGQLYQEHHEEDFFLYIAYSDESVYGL
clathrin adaptor protein AP2 (AP2 μ1 subunit as printed), sequence (P84092 whole entry, looked up, tested part not stated): as the sequence (P84092 whole entry) above
GABARAP, sequence (Q9DCD6 whole entry, looked up): as the sequence (Q9DCD6 whole entry) above
GABAA receptor-associated protein (GABARAP) (mouse), sequence (Q9DCD6 whole entry): as above

Kd [4] [nM]	Kd [5] [µM]	Substance	also measured
250	4.2	GABAAR γ2 subunit GIM (GABARAP interacting motif, 398–415) (from UniProt P22723-2 398-415) (peptide)	Kd [3]: 4.9 µM
–	5.1	recombinant of the TM3–TM4 ICD lacking the 424–441 octadecapeptide (from UniProt P22723-2 375-442) (domain or fragment)	–
5200	0.82	synthetic pY403 γ2-GIM (from UniProt P22723-2 398-415) (peptide)	–

More lines, now with the values behind:

Substance	Kd [4] [nM]	Kd [5] [µM]	also measured
GABAA receptor γ2 subunit (γ2-GABAAR; γ2-GIM = residues 398–415) γ2-GIM, 398-415 (from UniProt P22723-2) pY405 peptide	–	–	binding against the reference [1]: lost; binding against the reference (GABARAP): lost
GABAA receptor γ2 subunit GIM (GABARAP interacting motif, 398-415) (peptide)	–	–	stoichiometry N [2]: 1.06
synthesized γ2-GIM WT peptide (from UniProt P22723-2 398-415)	450	3.6	–
